Test results taken from patent publication US20230279064A1.

Biological target: human collagen (Sigma cat. no. C5483) (human)
Assay: ELISA on immobilised human collagen (FIG. 9)

Sequence of human collagen (Sigma cat. no. C5483) (human) (P02452 162-1218, chain 1 of 2): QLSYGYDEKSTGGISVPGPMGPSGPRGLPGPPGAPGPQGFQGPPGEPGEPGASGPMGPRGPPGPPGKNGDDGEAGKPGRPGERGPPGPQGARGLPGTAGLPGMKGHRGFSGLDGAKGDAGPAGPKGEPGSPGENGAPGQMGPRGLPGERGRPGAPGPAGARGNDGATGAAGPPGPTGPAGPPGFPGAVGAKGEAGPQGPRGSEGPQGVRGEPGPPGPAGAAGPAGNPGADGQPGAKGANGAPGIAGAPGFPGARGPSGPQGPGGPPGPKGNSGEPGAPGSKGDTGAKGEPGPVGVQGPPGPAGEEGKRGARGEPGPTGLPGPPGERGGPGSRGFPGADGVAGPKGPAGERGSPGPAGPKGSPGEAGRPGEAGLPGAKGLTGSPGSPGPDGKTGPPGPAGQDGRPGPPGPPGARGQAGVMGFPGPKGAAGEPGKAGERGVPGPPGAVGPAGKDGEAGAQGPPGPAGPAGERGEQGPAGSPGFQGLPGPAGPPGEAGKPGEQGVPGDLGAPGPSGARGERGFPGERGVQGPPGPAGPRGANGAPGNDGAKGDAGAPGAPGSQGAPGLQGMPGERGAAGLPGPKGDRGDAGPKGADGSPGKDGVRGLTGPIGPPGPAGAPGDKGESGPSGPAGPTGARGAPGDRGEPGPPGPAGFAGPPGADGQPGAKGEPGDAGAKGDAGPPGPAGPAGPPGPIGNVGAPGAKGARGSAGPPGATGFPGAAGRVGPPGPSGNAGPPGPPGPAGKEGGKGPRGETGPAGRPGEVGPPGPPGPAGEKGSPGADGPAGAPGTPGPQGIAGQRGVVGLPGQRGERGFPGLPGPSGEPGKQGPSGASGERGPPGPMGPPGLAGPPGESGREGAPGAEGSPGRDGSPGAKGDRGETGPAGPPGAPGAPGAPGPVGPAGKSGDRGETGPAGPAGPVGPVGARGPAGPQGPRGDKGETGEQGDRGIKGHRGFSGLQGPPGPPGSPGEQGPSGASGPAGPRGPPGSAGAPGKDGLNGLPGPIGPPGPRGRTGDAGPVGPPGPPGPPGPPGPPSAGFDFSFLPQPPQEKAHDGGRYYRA
Sequence of human collagen (Sigma cat. no. C5483) (human) (P08123 80-1119, chain 2 of 2, further chain): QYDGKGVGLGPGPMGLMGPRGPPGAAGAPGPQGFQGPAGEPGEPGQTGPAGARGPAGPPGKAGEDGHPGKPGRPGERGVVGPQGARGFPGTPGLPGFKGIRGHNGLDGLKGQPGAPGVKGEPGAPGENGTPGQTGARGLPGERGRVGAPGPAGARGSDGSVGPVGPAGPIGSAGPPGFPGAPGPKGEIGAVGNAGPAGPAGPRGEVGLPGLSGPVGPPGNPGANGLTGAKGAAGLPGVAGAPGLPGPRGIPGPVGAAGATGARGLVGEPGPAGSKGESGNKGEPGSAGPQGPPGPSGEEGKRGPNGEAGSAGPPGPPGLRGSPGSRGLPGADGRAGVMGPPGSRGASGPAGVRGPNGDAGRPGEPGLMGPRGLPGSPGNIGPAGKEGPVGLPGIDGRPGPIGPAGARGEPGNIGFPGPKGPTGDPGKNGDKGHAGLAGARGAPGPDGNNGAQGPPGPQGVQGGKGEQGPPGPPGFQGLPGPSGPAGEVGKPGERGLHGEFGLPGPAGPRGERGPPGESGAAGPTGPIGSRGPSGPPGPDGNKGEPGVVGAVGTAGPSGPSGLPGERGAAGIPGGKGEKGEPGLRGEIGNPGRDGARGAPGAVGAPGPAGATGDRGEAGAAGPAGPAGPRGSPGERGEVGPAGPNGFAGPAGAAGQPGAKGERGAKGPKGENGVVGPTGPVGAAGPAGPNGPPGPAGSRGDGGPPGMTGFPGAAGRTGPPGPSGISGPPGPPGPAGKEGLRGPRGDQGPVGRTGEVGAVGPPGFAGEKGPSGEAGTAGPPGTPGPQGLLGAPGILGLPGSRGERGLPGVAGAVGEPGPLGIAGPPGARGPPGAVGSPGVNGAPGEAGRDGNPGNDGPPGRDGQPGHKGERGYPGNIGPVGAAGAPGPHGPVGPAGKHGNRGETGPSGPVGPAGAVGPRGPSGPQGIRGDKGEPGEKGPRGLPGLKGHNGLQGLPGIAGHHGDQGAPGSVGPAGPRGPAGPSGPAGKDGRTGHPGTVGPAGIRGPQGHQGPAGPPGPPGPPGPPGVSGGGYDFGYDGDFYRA

fold increase in non-specific binding to collagen: 1.4 fold
Substance: GAIM scaffold variant with the Q128H mutation (Fc fusion)
